Where no end group is shown, it is not given here.
Biological target: T1, Δ-dTCTP (FL deleted dimer TCTP) (Pan troglodytes (Chimpanzee), UniProt A5A6K2 1-172, disulfide bridge between the C-terminal cysteines (Cys172) of the two chains)
T1 construct: also called A-dTCTP; dimer form of FL domain-deleted TCTP
T1 sequence: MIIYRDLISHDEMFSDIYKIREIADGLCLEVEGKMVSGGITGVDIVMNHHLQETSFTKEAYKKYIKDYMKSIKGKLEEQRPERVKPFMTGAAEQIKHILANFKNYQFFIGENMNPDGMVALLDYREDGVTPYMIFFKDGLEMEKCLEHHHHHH
Assay: ELISA: biotinylated dTBP2 (0.01 to 10 µM) on streptavidin plate, TCTP protein at 0.2 µg/ml, anti-HRF rabbit antibody detection
Method: To investigate the affinity to dTBP2 of f-TCTP, Δ-dTCTP, and Del-N11dTCTP of the present invention, biotin was conjugated to the COOH-terminus of dTBP2 known to bind to HRF, followed by purification. The purified protein was immobilized in the plastic well coated with streptavidin, to which f-TCTP, Δ-dTCTP, and Del-N11dTCTP were added. Then, the binding strength of each protein was investigated.
Particularly, 50 μL of the biotinylated dTBTP2 dissolved in a buffer (TBS [25 mM Tris, 150 mM NaCl, pH 7.2], 0.1% BSA, 0.05% Tween-20) at different concentrations of […] was added to Reacti-Bind Streptavidin Coated Polystyrene Plates (PIERCE), followed by reaction at room temperature for 2 hours. The plate was washed with a washing buffer three times. Each of f-TCTP, Δ-dTCTP, and Del-N11dTCTP was dissolved in TBS at the concentration of 0.2 μg/ml. 60 μl of the mixture was added to each well of the plate, followed by reaction for 1 hour. The plate was washed with a washing buffer three times. 100 μl of anti-HRF rabbit antibody (Bio-Rad) diluted in a buffer (1:2000) was added to each well of the plate, which stood at room temperature for 30 minutes. […] Color development was measured at 450 nm and 570 nm using an ELISA reader (Bio-Rad), and affinity was determined by the difference.

Binder: WYVYPSM-biotin (also called biotinylated dTBTP2) [biotinylated dTBP2 (dTCTP binding peptide 2)]
- binding result: binds

Reference: US20170158761A1 (EWHA UNIVERSITY INDUSTRY COLLABORATION FOUNDATION, published 2017)
